Data reported in patent US20250122306A1 (SUTRO BIOPHARMA, published 2025).

Each binder was assayed against tissue factor reagent of the Tissue Factor Activity Assay Kit (Abcam #ab108906) (UniProt P13726 33-295, limits assumed) (assay: cell-based or functional assay).
tissue factor reagent of the Tissue Factor Activity Assay Kit (Abcam #ab108906), sequence (P13726 33-295 limits assumed): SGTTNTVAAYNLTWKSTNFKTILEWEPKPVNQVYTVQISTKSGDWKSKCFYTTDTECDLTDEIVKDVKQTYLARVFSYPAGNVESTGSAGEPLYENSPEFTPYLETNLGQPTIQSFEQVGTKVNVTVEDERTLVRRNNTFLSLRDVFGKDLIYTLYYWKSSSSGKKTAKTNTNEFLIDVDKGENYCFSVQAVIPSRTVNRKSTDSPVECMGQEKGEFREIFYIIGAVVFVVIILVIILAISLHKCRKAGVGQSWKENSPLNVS

| Binder | FX conversion (% inhibition), 1000 nM antibody |
| --- | --- |
| SRP2900-A11 (antibody, IgG1, V domains shown) VH: EVQLVESGGGLVQPGGSLRLSCAASGFTITDYVIHWVRQAPGKGLEWVGYIDPSNGYTYYADSVKGRFTISADTSKNTAYLQMNSLRAEDTAVYYCARDDQSFTSPFDYWGQGTLVTVSS VL: not shown | 31.7% |
| SRP2900-D06 (antibody, IgG1, V domains shown) VH: EVQLVESGGGLVQPGGSLRLSCAASGFTISDYWIHWVRQAPGKGLEWVGYIDPQNGWTYYADSVKGRFTISADTSKNTAYLQMNSLRAEDTAVYYCARDYGSLTINLDYWGQGTLVTVSS VL: not shown | 46.2% |
| SRP2900-C10 (antibody, IgG1, V domains shown) VH: EVQLVESGGGLVQPGGSLRLSCAASGFTISDYWIHWVRQAPGKGLEWVGYIDPYNGYTYYADSVNGRFTISADTSKNTAYLQMNSLRAEDTAVYYCARDYGSYLVSLDYWGQGTLVTVSS VL: not shown | 42.1% |
| SRP2900-D09 (antibody, IgG1, V domains shown) VH: EVQLVESGGGLVQPGGSLRLSCAASGFTISGYWIHWVRQAPGKGLEWVGYIDPANGFTYYADSVKGRFTISADTSKNTAYLQMNSLRAEDTAVYYCARDYGSIQVFLDYWGQGTLVTVSS VL: not shown | 30% |
| SRP2900-D01 (antibody, IgG1, V domains shown) VH: EVQLVESGGGLVQPGGSLRLSCAASGFTIHEYWIHWVRQAPGKGLEWVGYIDPANGFTYYADSVKGRFTISADTSKNTAYLQMNSLRAEDTAVYYCARDYGSLQVFLDYWGQGTLVTVSS VL: not shown | 32.7% |
| SRP2900-D03 (antibody, IgG1, V domains shown) VH: EVQLVESGGGLVQPGGSLRLSCAASGFTISQYWIHWVRQAPGKGLEWVGYIDPYNGYTYYADSVKGRFTISADTSKNTAYLQMNSLRAEDTAVYYCARDYGSLQVQLDYWGQGTLVTVSS VL: not shown | 37.4% |
| SRP2900-A08 (antibody, IgG1, V domains shown) VH: EVQLVESGGGLVQPGGSLRLSCAASGFTLTGYWIHWVRQAPGKGLEWVGYIDPYNGATYYADSVKGRFTISADTSKNTAYLQMNSLRAEDTAVYYCARADYYYVDEYWDYWGQGTLVTVSS VL: not shown | 41.9% |
| SRP2900-C02 (antibody, IgG1, V domains shown) VH: EVQLVESGGGLVQPGGSLRLSCAASGFTISSYWIHWVRQAPGKGLEWVGYIDPYNGATYYADSVKGRFTISADTSKNTAYLQMNSLRAEDTAVYYCARADYYYVDEYWDYWGQGTLVTVSS VL: not shown | 29.6% |
| SRP2900-B10 (antibody, IgG1, V domains shown) VH: EVQLVESGGGLVQPGGSLRLSCAASGFTIPAYWIHWVRQAPGKGLEWVGYIDPYNGSTYYADSVKGRFTISADTSKNTAYLQMNSLRAEDTAVYYCARADYYYVDEYWDYWGQGTLVTVSS VL: not shown | 33.3% |
| SRP2900-C07 (antibody, IgG1, V domains shown) VH: EVQLVESGGGLVQPGGSLRLSCAASGFTISGYWIHWVRQAPGKGLEWVGYIDPYNGATYYADSVKGRFTISADTSKNTAYLQMNSLRAEDTAVYYCARADYYYVDEYFDYWGQGTLVTVSS VL: not shown | 41.6% |
| SRP2900-B05 (antibody, IgG1, V domains shown) VH: EVQLVESGGGLVQPGGSLRLSCAASGFTISGYWIHWVRQAPGKGLEWVGYIDPYNGATYYADSVKGRFTISADTSKNTAYLQMNSLRAEDTAVYYCARADYYGVDEFLDYWGQGTLVTVSS VL: not shown | 35.5% |
| SRP2900-B06 (antibody, IgG1, V domains shown) VH: EVQLVESGGGLVQPGGSLRLSCAASGFTIPSYWIHWVRQAPGKGLEWVGYIDPYNGATYYADSVKGRFTISADTSKNTAYLQMNSLRAEDTAVYYCARADYHGVDEYWDYWGQGTLVTVSS VL: not shown | 28.2% |
| SRP2900-C04 (antibody, IgG1, V domains shown) VH: EVQLVESGGGLVQPGGSLRLSCAASGFTIVSYWIHWVRQAPGKGLEWVGYIDPYNGATYYADSVKGRFTISADTSKNTAYLQMNSLRAEDTAVYYCARADYYYVDEYWDYWGQGTLVTVSS VL: not shown | 36.7% |
| SRP2900-B01 (antibody, IgG1, V domains shown) VH: EVQLVESGGGLVQPGGSLRLSCAASGFTISGYWIHWVRQAPGKGLEWVGYIDPYNGATYYADSVKGRFTISADTSKNTAYLQMNSLRAEDTAVYYCARADYYYVDEYLDYWGQGTLVTVSS VL: not shown | 38.7% |
| SRP2900-B11 (antibody, IgG1, V domains shown) VH: EVQLVESGGGLVQPGGSLRLSCAASGFTIPAYWIHWVRQAPGKGLEWVGYIDPSNGYTYYADSVKGRFTISADASKNTAYLQMNSLRAEDTAAYYCARADYHGVDEYWDYWGQGTLVTVSS VL: not shown | 22.4% |
| SRP2900-B02 (antibody, IgG1, V domains shown) VH: EVQLVESGGGSVQPGGSLRLSCAASGFTISDYWIHWVRQAPGKGLEWVGYIDPYNGATYYADSVKGRFTISADTSKNTAYLQMNSLRAEDTAVYYCARADYYYVDEYWDYWGQGTLVTVSS VL: not shown | 27% |
| SRP2900-B07 (antibody, IgG1, V domains shown) VH: EVQLVESGGGLVQPGGSLRLSCAASGFTIADYWIHWVRQAPGKGLEWVGFIDPYNGYTGYADSVKGRFTISADNSKNTAYLQMNSLRAEDTAVYYCARADYHGVDEYWDYWGQGTLVTVSS VL: not shown | 42.2% |
| SRP2900-B08 (antibody, IgG1, V domains shown) VH: EVQLVESGGGLVQPGGSLRLSCAASGFTIPSYWIHWVRQAPGKGLEWVGYIDPYNGYTYYADSVKGRFTISADTSKNTAYLQMNSLRAEDTAVYYCARADYYYVDEYFDYWGQGTLVTVSS VL: not shown | 43.3% |
| SRP2900-C05 (antibody, IgG1, V domains shown) VH: EVQLVESGGGLVQPGGSLRLSCAASGFTISGYWIHWVRQAPGKGLEWVGYIDPYNGATYYADSVKGRFTISADTPKNTAYLQMNSLRAEDTAVYYCARADYHGVDEYWDYWGQGTLVTVSS VL: not shown | 35.7% |

The remaining lines, values ahead:

| FX conversion (% inhibition), 1000 nM antibody | Binder |
| --- | --- |
| 44.9% | SRP2900-D08 (antibody, IgG1, V domains shown) VH: EVQLVESGGGLVQPGGSLRLSCAASGFTISDYWIHWVRQAPGKGLEWVGYIDPYNGYTYYADSVKGRFTISADTSKNTAYLQMNSLRAEDTAVYYCARDYGSLEVSLDYWGQGTLVTVSS VL: not shown |
| 47.4% | SRP2900-D07 (antibody, IgG1, V domains shown) VH: EVQLVESGGGLVQPGGSLRLSCAASGFTISDYWIHWVRQAPGKGLEWVGYIDPSNGYTYYADSVKGRFTISADTSRNTAYLQMNSLRAEDTAVYYCARDYGSLEVSLDYWGQGTLVTVSS VL: not shown |
| 37% | SRP2900-D10 (antibody, IgG1, V domains shown) VH: EVQLVESGGGLVQPGGSLRLSCAASGFTISDYWIHWVRQAPGKGLEWVGFIDPKNGYTYYADSVKGRFTISAGTSKNTAYLQMNSLRAEDTAVYYCARDYGSLQVFIDYWGQGTLVTVSS VL: not shown |
| 33.6% | SRP2900-D05 (antibody, IgG1, V domains shown) VH: EVQLVESGGGLVQPGGSLRLSCAASGFAIANYWIHWVRQAPGKGLEWVGYIDPYNGYTYYADSVKGRFTISADTSKNTAYLQMNSLRAEDTAVYYCARDYGSLEVSLDYWGQGTLVTVSS VL: not shown |
| 46% | SRP2900-D04 (antibody, IgG1, V domains shown) VH: EVQLVESGGGLVQPGGSLRLSCAASGFTISDYWIHWVRQAPGKGLEWVGFIDPYNGYTYHADSVEGRFTISADTSKNTAYLQMNSLRAEDTAVYYCARDYGSLQVQLDYWGQGTLVTVSS VL: not shown |
| 51.4% | SRP2900-D11 (antibody, IgG1, V domains shown) VH: EVQLVESGGGLVQPGGSLRLSCAASGFTISDYWIHWVRQAPGKGLEWVGYIDPYNGYTYYADSVKGRFTISADTSKNTAYLQMNPLRAEDTAVYYCARDYGSLQVQLDYWGQGTLVTVSS VL: not shown |
| 32.1% | SRP2900-D02 (antibody, IgG1, V domains shown) VH: EVQLVESGGGLVQPGGSLRLSCAASGFTISDYWIHWVRQAPGKGLEWVGYIDPYNGYTYYADSVKGRFTISADTSKNTAYLQMNSLRAEDTAVYYCARDYGSLQVFIDHWGQGTLVTVSS VL: not shown |
| 35% | SRP2900-B09 (antibody, IgG1, V domains shown) VH: EVQLVESGGGLVQPGGSLRLSCAASGFTISQYWIHWVRQAPGKGLEWVGFIDPYNGYTNYADSVKGRFTISADTSENTAYLQMNSLRAEDTAVYYCARADYYYVDEYWDYWGQGTLVTVSS VL: not shown |
| 46.3% | SRP2900-B04 (antibody, IgG1, V domains shown) VH: EVQLVESGGGLVQPGGSLRLSCAASGFTISEYWIHWVRQAPGKGLEWVGFIDPYNGYTGYADSVRGRFTISADTSKNTAYLQMNSLRAEDTAVYYCARADYYYVDEYWDYWGQGTLVTVSS VL: not shown |
| 44.1% | SRP2900-B03 (antibody, IgG1, V domains shown) VH: EVQLVESGGGLVQPGGSLRLSCSASGFTIADYWIHWVRQAPGKGLEWVGYIDPYNGATYYADSVKGRFTISADTSKNTAYLQMNSLRAEDTAVYYCARADYYYVDEYWDYWGQGTLVTVSS VL: not shown |
| 37% | SRP2900-A01 (antibody, IgG1, V domains shown) VH: EVQLVESGGGLVQPGGSLRLSCAASGFTISSYWIHWVRQAPGKGLKWVGYIDPYNGATYYADSVKGRFTISADTSKNTAYLQMNSLRAEDTAVYYCARADYYYVDEYFDYWGQGTLVTVSS VL: not shown |
| 46.9% | SRP2900-A09 (antibody, IgG1, V domains shown) VH: EVQLVESGGGLVQPGGSLRLSCAASGFTIADYWIHWVRQAPGKGLEWVGYIDPYNGATYYADSVKGRFTISADTSKNTAYLQMNSLRAEDTAVYYCARADYYYVDEYWDYWGQGTLVTVSS VL: not shown |
